T1: cynomolgus monkey FcγRIIb extracellular domain, C-terminal His-tag (cynomolgus monkey)
T1 construct: also called cyno FcγRIIb; cynoFcγRIIb; not shown: His-tag added to C-terminus
T1 chain: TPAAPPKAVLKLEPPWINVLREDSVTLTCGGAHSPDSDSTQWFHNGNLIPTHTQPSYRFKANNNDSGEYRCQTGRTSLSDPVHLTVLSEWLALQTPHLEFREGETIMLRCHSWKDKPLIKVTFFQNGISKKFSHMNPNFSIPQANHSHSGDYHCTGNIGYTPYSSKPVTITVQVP

T2: cynomolgus monkey FcγRIIa1 extracellular domain, C-terminal His-tag (cynomolgus monkey)
T2 construct: also called cyno FcγRIIa1; cynoFcgRIIa1; not shown: His-tag added to C-terminus
T2 chain: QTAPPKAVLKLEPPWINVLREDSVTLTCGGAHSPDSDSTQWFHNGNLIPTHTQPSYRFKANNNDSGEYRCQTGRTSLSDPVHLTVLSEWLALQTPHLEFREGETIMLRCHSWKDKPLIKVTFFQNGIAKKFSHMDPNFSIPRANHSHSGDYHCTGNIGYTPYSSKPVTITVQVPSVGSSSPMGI

T3: cynomolgus monkey FcγRIIa3 extracellular domain, C-terminal His-tag (cynomolgus monkey)
T3 construct: also called cyno FcγRIIa3; cynoFcgRIIa3; not shown: His-tag added to C-terminus
T3 chain: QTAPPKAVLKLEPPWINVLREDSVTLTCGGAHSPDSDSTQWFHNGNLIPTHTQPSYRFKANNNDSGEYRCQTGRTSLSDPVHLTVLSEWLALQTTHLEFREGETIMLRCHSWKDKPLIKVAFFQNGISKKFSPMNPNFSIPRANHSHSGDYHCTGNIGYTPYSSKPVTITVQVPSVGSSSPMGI

T4: human FcγRIIaR extracellular domain, C-terminal His-tag (human, UniProt P12318 34-217)
T4 construct: also called human FcγRIIa (type R); FcgRIIaR; not shown: His-tag added to C-terminus
T4 chain: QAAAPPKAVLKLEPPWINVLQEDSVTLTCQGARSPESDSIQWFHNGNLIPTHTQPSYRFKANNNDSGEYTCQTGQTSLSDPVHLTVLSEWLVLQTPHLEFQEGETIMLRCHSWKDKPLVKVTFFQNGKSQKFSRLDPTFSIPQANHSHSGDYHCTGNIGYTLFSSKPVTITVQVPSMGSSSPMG

T5: cynomolgus monkey FcγRIIa2 extracellular domain, C-terminal His-tag (cynomolgus monkey)
T5 construct: also called cyno FcγRIIa2; cynoFcgRIIa2; not shown: His-tag added to C-terminus
T5 chain: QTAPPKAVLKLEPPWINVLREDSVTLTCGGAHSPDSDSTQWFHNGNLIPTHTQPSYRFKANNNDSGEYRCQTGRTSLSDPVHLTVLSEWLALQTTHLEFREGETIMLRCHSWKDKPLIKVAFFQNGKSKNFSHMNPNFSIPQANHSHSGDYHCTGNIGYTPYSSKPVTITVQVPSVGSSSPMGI

T6: human FcγRIIaH extracellular domain, C-terminal His-tag (human, UniProt P12318 34-217)
T6 construct: also called human FcγRIIa (type H); FcgRIIaH; not shown: His-tag added to C-terminus
T6 sequence: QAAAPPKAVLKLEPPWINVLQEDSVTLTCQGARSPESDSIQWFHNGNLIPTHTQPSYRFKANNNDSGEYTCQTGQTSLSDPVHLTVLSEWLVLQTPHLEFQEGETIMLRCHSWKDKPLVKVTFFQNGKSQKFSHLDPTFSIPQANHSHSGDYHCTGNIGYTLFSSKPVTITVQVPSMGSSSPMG


Assays:
Test in all cases: SPR (Biacore), KD of SG1 / KD of variant;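 note: relative to parent M103205H795-SG1 carrying the SG1 human heavy chain constant region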
[1] = target: T1, cynomolgus monkey FcγRIIb extracellular …
[2] = target: T7, cynomolgus monkey FcγRIIIaS extracellular domain, C-terminal His-tag (cynomolgus monkey, UniProt A3RFZ7 21-206 (rhesus entry))
T7 construct: also called cyno FcγRIIIaS; cynoFcγRIIIaS; not shown: His-tag added to C-terminus

[3] = target: T2, cynomolgus monkey FcγRIIa1 …
[4] = target: T3, cynomolgus monkey FcγRIIa3 …
[5] = target: T4, human FcγRIIaR extracellular domain, …
[6] = target: T8, human FcγRIIIaV extracellular domain, C-terminal His-tag (human, UniProt P08637 17-208)
T8 construct: also called FcgRIIIaV; not shown: His-tag added to C-terminus

[7] = target: T5, cynomolgus monkey FcγRIIa2 …
[8] = target: T6, human FcγRIIaH extracellular domain, …

T7 sequence (A3RFZ7 21-206): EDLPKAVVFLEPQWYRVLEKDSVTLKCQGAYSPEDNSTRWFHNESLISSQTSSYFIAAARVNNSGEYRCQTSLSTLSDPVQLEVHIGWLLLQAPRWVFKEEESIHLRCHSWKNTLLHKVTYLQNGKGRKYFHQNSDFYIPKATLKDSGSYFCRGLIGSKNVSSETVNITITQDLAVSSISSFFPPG
T8 sequence (P08637 17-208 F176V): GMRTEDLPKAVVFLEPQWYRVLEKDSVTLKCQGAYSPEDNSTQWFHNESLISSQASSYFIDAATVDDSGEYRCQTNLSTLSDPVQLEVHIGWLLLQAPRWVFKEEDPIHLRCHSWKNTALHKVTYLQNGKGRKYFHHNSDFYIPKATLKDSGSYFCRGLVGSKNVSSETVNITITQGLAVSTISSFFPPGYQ

| KD fold (SG1 = 1) [1] [fold] | KD fold (SG1 = 1) [2] [fold] | KD fold (SG1 = 1) [3] [fold] | KD fold (SG1 = 1) [4] [fold] | KD fold (SG1 = 1) [5] [fold] | KD fold (SG1 = 1) [6] [fold] | KD fold (SG1 = 1) [7] [fold] | KD fold (SG1 = 1) [8] [fold] | Binder |
| --- | --- | --- | --- | --- | --- | --- | --- | --- |
| 2.9 | 0.3 | 1.3 | 2.4 | 4.3 | 0.19 | 2 | 4.9 | M103205H795-MY309/M103202L889-SK1 (antibody, human IgG1, kappa) heavy: QVTLKESGPVLVKPTETLTLTCTVSGIDLSHDDISWVRQAPGKGLEWVGIISYAGSTYYASWAKGRLTISKDTSKNQVVLTMTNMDPVDTATYYCARGVPAYSHGGDLWGQGTLVTVSSASTKGPSVFPLAPSSKSTSGGTAALGCLVKDYFPEPVTVSWNSGALTSGVHTFPAVLQSSGLYSLSSVVTVPSSSLGTQTYICNVNHKPSNTKVDKKVEPKSCDKTHTCPPCPAPELLTGPSVFLFPPKPKDTLMISRTPEVTCVVVDVSEEDPEVKFNWYVDGVEVHNAKTKPREEQYNSTYRVVSVLTVLHQDWLNGKEYKCKVSNKALPKPIEKTISKAKGQPREPQVYTLPPSREEMTKNQVSLTCLVKGFYPSDIAVEWESNGQPENNYKTTPMVLDSDGSFFLYSKLTVDKSRWQQGNVFSCSVMHEALHNHYTQKSLSLSP light: DIVMTQSPATLSLSPGERATLSCTSSQSVYHANWLSWFQQKPGQPPKLLIYWASTLAYGVPSRFSGSGSGTDFTLTISSLQPEDAATYYCAGGYGGGRYAFGQGTKVEIKRTVAAPSVFIFPPSDEQLKSGTASVVCLLNNFYPREAKVQWKVDNALQSGNSQESVTEQDSKDSTYSLSSTLTLSKADYEKHKVYACEVTHQGLSSPVTKSFNRGEC |
| 1.2 | 0.16 | 1 | 1.3 | 1.3 | 0.03 | 1.9 | 1.5 | M103205H795-MY308/M103202L889-SK1 (antibody, human IgG1, kappa) heavy: QVTLKESGPVLVKPTETLTLTCTVSGIDLSHDDISWVRQAPGKGLEWVGIISYAGSTYYASWAKGRLTISKDTSKNQVVLTMTNMDPVDTATYYCARGVPAYSHGGDLWGQGTLVTVSSASTKGPSVFPLAPSSKSTSGGTAALGCLVKDYFPEPVTVSWNSGALTSGVHTFPAVLQSSGLYSLSSVVTVPSSSLGTQTYICNVNHKPSNTKVDKKVEPKSCDKTHTCPPCPAPELLTGPSVFLFPPKPKDTLMISRTPEVTCVVVDVSEEDPEVKFNWYVDGVEVHNAKTKPREEQYNSTYRVVSVLTVLHQDWLNGKEYKCKVSNKALPKPIEKTISKAKGQPREPQVYTLPPSREEMTKNQVSLTCLVKGFYPSDIAVEWESNGQPENNYKTTPPVLDSDGSFFLYSKLTVDKSRWQQGNVFSCSVMHEALHNHYTQKSLSLSP light: DIVMTQSPATLSLSPGERATLSCTSSQSVYHANWLSWFQQKPGQPPKLLIYWASTLAYGVPSRFSGSGSGTDFTLTISSLQPEDAATYYCAGGYGGGRYAFGQGTKVEIKRTVAAPSVFIFPPSDEQLKSGTASVVCLLNNFYPREAKVQWKVDNALQSGNSQESVTEQDSKDSTYSLSSTLTLSKADYEKHKVYACEVTHQGLSSPVTKSFNRGEC |
| 1.9 | 0.2 | 1.1 | 2.4 | 2 | 0.12 | 1.8 | 1.7 | M103205H795-MY310/M103202L889-SK1 (antibody, human IgG1, kappa) heavy: QVTLKESGPVLVKPTETLTLTCTVSGIDLSHDDISWVRQAPGKGLEWVGIISYAGSTYYASWAKGRLTISKDTSKNQVVLTMTNMDPVDTATYYCARGVPAYSHGGDLWGQGTLVTVSSASTKGPSVFPLAPSSKSTSGGTAALGCLVKDYFPEPVTVSWNSGALTSGVHTFPAVLQSSGLYSLSSVVTVPSSSLGTQTYICNVNHKPSNTKVDKKVEPKSCDKTHTCPPCPAPELLTGPSVFLFPPKPKDTLMISRTPEVTCVVVDVSEEDPEVKFNWYVDGVEVHNAKTKPREEQYNSTYRVVSVLTVLHQDWLNGKEYKCKVSNTALPKPIEKTISKAKGQPREPQVYTLPPSREEMTKNQVSLTCLVKGFYPSDIAVEWESNGQPENNYKTTPPVLDSDGSFFLYSKLTVDKSRWQQGNVFSCSVMHEALHNHYTQKSLSLSP light: DIVMTQSPATLSLSPGERATLSCTSSQSVYHANWLSWFQQKPGQPPKLLIYWASTLAYGVPSRFSGSGSGTDFTLTISSLQPEDAATYYCAGGYGGGRYAFGQGTKVEIKRTVAAPSVFIFPPSDEQLKSGTASVVCLLNNFYPREAKVQWKVDNALQSGNSQESVTEQDSKDSTYSLSSTLTLSKADYEKHKVYACEVTHQGLSSPVTKSFNRGEC |

More lines, now with the values behind:

| Binder | KD fold (SG1 = 1) [1] [fold] | KD fold (SG1 = 1) [2] [fold] | KD fold (SG1 = 1) [3] [fold] | KD fold (SG1 = 1) [4] [fold] | KD fold (SG1 = 1) [5] [fold] | KD fold (SG1 = 1) [6] [fold] | KD fold (SG1 = 1) [7] [fold] | KD fold (SG1 = 1) [8] [fold] |
| --- | --- | --- | --- | --- | --- | --- | --- | --- |
| M103205H795-MY292/M103202L889-SK1 (antibody, human IgG1, kappa) heavy: QVTLKESGPVLVKPTETLTLTCTVSGIDLSHDDISWVRQAPGKGLEWVGIISYAGSTYYASWAKGRLTISKDTSKNQVVLTMTNMDPVDTATYYCARGVPAYSHGGDLWGQGTLVTVSSASTKGPSVFPLAPSSKSTSGGTAALGCLVKDYFPEPVTVSWNSGALTSGVHTFPAVLQSSGLYSLSSVVTVPSSSLGTQTYICNVNHKPSNTKVDKKVEPKSCDKTHTCPPCPAPELLGYPSVFLFPPKPKDTLMISRTPEVTCVVVDVSDEDPEVKFNWYVDGVEVHNAKTKPREELYNSTYRVVSVLTVLHQDWLNGKEYKCKVSNKALPKPIEKTISKAKGQPREPQVYTLPPSREEMTKNQVSLTCLVKGFYPSDIAVEWESNGQPENNYKTTPMVLDSDGSFFLYSKLTVDKSRWQQGNVFSCSVMHEALHNHYTQKSLSLSP light: DIVMTQSPATLSLSPGERATLSCTSSQSVYHANWLSWFQQKPGQPPKLLIYWASTLAYGVPSRFSGSGSGTDFTLTISSLQPEDAATYYCAGGYGGGRYAFGQGTKVEIKRTVAAPSVFIFPPSDEQLKSGTASVVCLLNNFYPREAKVQWKVDNALQSGNSQESVTEQDSKDSTYSLSSTLTLSKADYEKHKVYACEVTHQGLSSPVTKSFNRGEC | 4 | 0.05 | 2.1 | 7.7 | 14.5 | 0.03 | 2 | 0.7 |
| M103205H795-MY293/M103202L889-SK1 (antibody, human IgG1, kappa) heavy: QVTLKESGPVLVKPTETLTLTCTVSGIDLSHDDISWVRQAPGKGLEWVGIISYAGSTYYASWAKGRLTISKDTSKNQVVLTMTNMDPVDTATYYCARGVPAYSHGGDLWGQGTLVTVSSASTKGPSVFPLAPSSKSTSGGTAALGCLVKDYFPEPVTVSWNSGALTSGVHTFPAVLQSSGLYSLSSVVTVPSSSLGTQTYICNVNHKPSNTKVDKKVEPKSCDKTHTCPPCPAPELLGYPSVFLFPPKPKDTLMISRTPEVTCVVVDVSEEDPEVKFNWYVDGVEVHNAKTKPREELYNSTYRVVSVLTVLHQDWLNGKEYKCKVSNKALPKPIEKTISKAKGQPREPQVYTLPPSREEMTKNQVSLTCLVKGFYPSDIAVEWESNGQPENNYKTTPKVLDSDGSFFLYSKLTVDKSRWQQGNVFSCSVMHEALHNHYTQKSLSLSP light: DIVMTQSPATLSLSPGERATLSCTSSQSVYHANWLSWFQQKPGQPPKLLIYWASTLAYGVPSRFSGSGSGTDFTLTISSLQPEDAATYYCAGGYGGGRYAFGQGTKVEIKRTVAAPSVFIFPPSDEQLKSGTASVVCLLNNFYPREAKVQWKVDNALQSGNSQESVTEQDSKDSTYSLSSTLTLSKADYEKHKVYACEVTHQGLSSPVTKSFNRGEC | 2.1 | 0.05 | 1.1 | 4.4 | 15.1 | 0.02 | 1.5 | 0.5 |

Source: patent publication US20200317768A1 (published 2020)
